Patent EP4733322A1 (dated 2026)

Target: T1, KRAS G12V peptide on HLA-A*11 (human)
T1 peptide: VVGAVGVGK
Test: cytokine release

B1: CR-KVA11-N03 (TCR, V domains shown)
Valpha: RKEVEQDPGPFNVPEGATVAFNCTYSNSASQSFFWYRQDCRKEPKLLMSVYSSGNEDGRFTAQLNRASQYISLLIRDSKLSDSATYLCVVPGGTGGGNKLTFGTGTQLKVEL
Vbeta: DTAVSQTPKYLVTQMGNDKSIKCEQNLGHDTMDWYKQDSKKFLKIMFSYNNKELIINETVPNRFSPKSPDKAHLNLHINSLELGDSAVYFCASSHWGAQETQYFGPGTRLLVL
- binding result: recognises
